What follows are binders tested against MSLN on SKOV3 and Aspc-1 tumor cells (UniProt Q13421) (assay: flow cytometry on Aspc-1 tumor cells, anti-human IgG PE secondary, fitted curve).
Sequence of MSLN on SKOV3 and Aspc-1 tumor cells (Q13421 other isoform, or with tags, fused parts or gaps limits assumed): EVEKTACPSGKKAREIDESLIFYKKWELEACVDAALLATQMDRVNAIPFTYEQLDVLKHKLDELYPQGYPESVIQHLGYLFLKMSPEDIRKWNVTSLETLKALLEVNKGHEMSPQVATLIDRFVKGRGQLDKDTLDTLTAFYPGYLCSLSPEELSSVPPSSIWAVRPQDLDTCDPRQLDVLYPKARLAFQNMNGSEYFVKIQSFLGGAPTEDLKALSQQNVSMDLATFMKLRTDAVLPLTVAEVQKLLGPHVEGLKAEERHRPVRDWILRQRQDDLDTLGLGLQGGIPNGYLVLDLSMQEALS

| EC50 [nM] | Binder |
| --- | --- |
| 4.24 | YP218-IgG4 (antibody, from another filing, V domains shown) VH: QQQLEESGGGLVKPEGSLTLTCKASGFDLGFYFYACWVRQAPGKGLEWIACIYTAGSGSTYYASWAKGRFTISKASSTTVTLQMTSLAAADTATYFCARSTANTRSTYYLNLWGPGTLVTVSS VL: DVVMTQTPASVSEPVGGTVTIKCQASQRISSYLSWYQQKPGQRPKLLIFGASTLASGVPSRFKGSGSGTEYTLTISDLECADAATYYCQSYAYFDSNNWHAFGGGTEVVVRT |

The binders below were run against MSLN on SKOV3 and Aspc-1 tumor cells (UniProt Q13421) (assay: flow cytometry on SKOV3 tumor cells, anti-human IgG PE secondary, fitted curve).

| EC50 [nM] | Binder |
| --- | --- |
| 6.96 | YP218-IgG4 (antibody, from another filing, V domains shown) VH: QQQLEESGGGLVKPEGSLTLTCKASGFDLGFYFYACWVRQAPGKGLEWIACIYTAGSGSTYYASWAKGRFTISKASSTTVTLQMTSLAAADTATYFCARSTANTRSTYYLNLWGPGTLVTVSS VL: DVVMTQTPASVSEPVGGTVTIKCQASQRISSYLSWYQQKPGQRPKLLIFGASTLASGVPSRFKGSGSGTEYTLTISDLECADAATYYCQSYAYFDSNNWHAFGGGTEVVVRT |

These binders were tested against Negative control (amino acid sequence shown in SEQ ID NO: 2 in CN106046152A) (assay: ELISA, negative control well, TG1 supernatant).

| ELISA (OD450) | Binder |
| --- | --- |
| 0.007 | M132 (VHH) VHH: QVQLVESGGGLVQAGGSLSLSCVASGDAFSFDAMGWYRQFSGKVNERQLVVATSRDGRTAYGERVKGRFTASRDNSKNTLSLVMNNLQVEDTAIYYCAAGDDPKDYYWGQGTQVTVSS |
| 0.007 | M169 (VHH) VHH: EVQLVESGGGTVQPGESLRLSCEASGAVSTINAMGWYRQTPEMRKLVATMGSGGNTYYADSVKGRFTISRDFAGNTVDLQMNDLKPEDTGVYFCAADKFGADIKEVAYWGKGTLVTVSS |
| 0.0074 | M224 (VHH) VHH: QVQLVESGGGLVQPGGSLRLSCAASGFTFHYYAIGWFRQAPGKEREGVSCISSSGDSTWFSDSVKGRFTVSRDNAKNIVHLQMNNLKPEDTAVYYCAGTTRSGYVCYDAEPYDSWGQGTQVTVSS |
| 0.0072 | M005 (VHH) VHH: EVQLVESGGGWVQSGGSLRLACAASGSSFGLNVVGWYRQAPDKQRELVASIGNGGRTTDYADSVKGRFTISSDNAKNTVFLQMNDLKPEDTAVYYCHLRASVTKGYWGQGTQVTVSS |
| 0.0068 | M126 (VHH) VHH: EVQLVESGGGWVQSGGSLRLACAASGDSFGLNVVGWYRLAPDKQRELVASIGNGGRTTDYADSVKGRFTISSDNAKNTVFLQMNDLKPEDTAMYYCHLRVSVTEGYWGQGTQVTVSS |
| 0.0075 | M012 (VHH) VHH: QVQLVESGGDLVQTGGSLRLSCVVSGSTFAINAMGWYRQAPGKERELVAAISSGGDSTHYADDVKGRFTISRDNAENTMYLQMKSLKPEDTAVYVCNARGCRDFHNPQALCVLRDYWGQGTQVTVSS |
| 0.0074 | M191 (VHH) VHH: QVQLVESGGGLVQAGGSLRLSCAASASMGSISNMGWYRQAPGKERGNERNLVATIGSDGRTYYADSVKGRFTISRDNVKNTMILQMNFLKPEDTAMYYCAVEDRQRPGTENYYWGQGTQVTVSS |
| 0.007 | M010 (VHH) VHH: QVQLVESGGGLVQAGGSLRLSCAASGSVSSINAMGWYRQGTGEVRKLVATMGSGGNTYYADSVKGRFFITRDYSKNTVSLQMNNLTPEDSATYYCAADRFGASIHEVDYWGKGTLVTVSS |
| 0.0074 | M118 (VHH) VHH: EVQLVESGGGLVQAGGSLTLSCAASEHTFTIDAMGYYRQIPGRRNERQLVAAAGRTGTTYYNDAVKDRFTIYRDTSKETIILQMNNLRPEDTTMYYCAVERYSDQSRFFGPGTQVTVSS |
| 0.0479 | M2339 (VHH) VHH: QLQLGASGGGLVQPGGSLRLSCALSGFTLRELDEFAIGWFRQAPGKEREGVSCISGTGGITHYADSVKGRFTISRDIAKTTVYLQMNSLNSEDTAVYYCAADERCTDRLIRPPTYWGQGTQVTVSS |
| 0.0083 | M044 (VHH) VHH: QVQVVESGGGFVQAGGSLRLSCAASTPIISIAYMGWYRQISEKERQLVATINSGGKTYYADSVKGRFTISRDNAKNTLYLQMNMLKPEDTGMYYCAASNKDYNDYDPDWGQGTQVTVSS |
| 0.018 | M047 (VHH) VHH: QVQLVETGGGSVQAGGSLRLSCAASGSIASIDAMGWYRQVPGKEWERELVATISSSNSDNKYYKDSVKGRFTISTNIAKNTWYLQMNNLKPEDTAMYYCAAEDYDTKDRFWGQGTQVTVSS |
| 0.007 | M129 (VHH) VHH: QVQLVESGGGSAQAGGSLILSCVASANLFTIDALGWYRQAPGPKRELVAAISSGGNKYYADAVKGRFTISRDTLTKTMWLQMNNLKPEDTAMYYCAAEDYGLGQRSWGMGTQVTVSS |
| 0.0085 | M143 (VHH) VHH: EVQLVESGGGLVQAGGSLRLSCSASEKTFSIKYMGYYRQGPGIERKLVATIDTDGKTWYADSVKGRFTISRENGENEIGLEMNRLKPEDTAMYYCAGETGTYPKPEYWGQGTQVTVSS |
| 0.0184 | M001 (VHH) VHH: EVQLVESGGGLVQAGGSLRLSCAASGSIFNINAMGWYRQAPGKEWERELVATISSSNSDNTYYKDSVKGRFTISTNTAKNTWYLQMNSLKPEDTAMYYCAAENYDRKDRYWGQGTQVTVSS |
| 0.0104 | M003 (VHH) VHH: QVQLVESGGGLVQAGGSLRLSCTASGNIFSINAMGWYRQPPGKEWERELVATISSTNSDNTYYKESVKGRFTISTNTAKNTWYLQMNSLKPEDTAMYYCAAENFDRKDRYWAQGTQVTVSS |
| 0.0099 | M050 (VHH) VHH: EVQLQESGGGLVQAGGSLRLSCAASGAVSSINAMGWYRQTPEKVRKLVATMGSGGNTYYADSVKGRFTISRDYAKNTVALQMNNLIPEDTAVYYCAADKFGADIHEVDYWGKGTLVTVSS |
| 0.0071 | M119 (VHH) VHH: EVQLVESGGGLVQPGGSLRLSCVASGSDLSFDAMGWYRQFSATVRERQLVVATSRDGRIYYGDSVKGRFTASRDNLKNSVDLEMNNLKPEDTAIYYCAAGDDPKNYDWGPGTQVTVSS |
| 0.0074 | M197 (VHH) VHH: EVQLVESGGGLVQAGGSLRLSCAASGSHFGLNVVGWYRQAPGKQRELVASIGNSGRTTDYADSVKGRFTISKDNAQNTIYLQMNNLKPEDTAMYRCHLRVSVERGYWGQGTQVTVSS |
| 0.0075 | M182 (VHH) VHH: QVQLVESGGGSVQAGGSLTLSCAASGAVSSINAMGWYRQTPEKVRQLVATMGSGGNTYYAASVKGRFTISRDYAKNTVALQMNHLLPEDTAVYYCAADRFGADIREVDYWGKGTQVTVSS |
| 0.0085 | M004 (VHH) VHH: EVQLVESGGGLVQAGGSLRLSCAASESISSIAYMGWYRRISEKERNLVATISSTGSTYYADSVKGRFTISRDNAKNTMYLQMNRLKPEDTAIYYCAASNKAYNDYDPDWGQGTQVTVSS |
| 0.0071 | M210 (VHH) VHH: QVQLVESGGGLVQPGGSLRLSCAASGITLDNYAIAWFRQAPGKKREGVSCISSNGNTYYQPSVKGRFTIARDNAKNTVYLHMNNLNPEDTAVYYCQVGQFSSSTTPVQAMSVMSLYADWGQGTQVTVSS |
| 0.0076 | M032 (VHH) VHH: EVQLVESGGGSVQAGGSLKISCAASGSVIDIGAMGWYRHITEKERKLVATINAGGNTYYADSVKGRFTISRDNAKYTVYLQMNSLKPEDTAMYYCAAEDINYTGTEAYYWGQGTQVTVSS |
| 0.0087 | M137 (VHH) VHH: QVQLVESGGGLVQAGGSLSLSCAASGSLSSINAMGWYRQLPEMRQLVATMGSDGKTYYADSVKGRFTISRDYAKYTVSLQMNNLRPEDTAIYYCAADRFGAPIHDVDYWGKGTLVTVSV |
| 0.0082 | M344 (VHH) VHH: QVQLVESGGGLVQSGGSLRLSCVASGSAFSFDAMGWYRQFSATRRERQLVVATSRDGRTYYADSVKGRFTATRDNSKNSLYLEMNSLKPEDTAIYYCAAGDDPKNYSWGQGTQVTVSS |
| 0.0074 | M156 (VHH) VHH: QVQLVESGGGLVQAGGSLRLSCAVSGISFEYYAIGWFRQAPGKEREAVSCTTSGTTSGGGVTDYADSLKGRFTISRDVAKNTVYLQMNNLTPEDTAVYYCAADIHCRGYVLFVPSDFGNWGQGTQVTVSS |

What follows are binders tested against segment III of MSLN expressed on HEK293T cells (UniProt Q13421) (assay: flow cytometry on HEK293T cells expressing MSLN segment III, anti-human IgG PE secondary, fitted curve).
Sequence of segment III of MSLN expressed on HEK293T cells (Q13421 495-606 limits assumed): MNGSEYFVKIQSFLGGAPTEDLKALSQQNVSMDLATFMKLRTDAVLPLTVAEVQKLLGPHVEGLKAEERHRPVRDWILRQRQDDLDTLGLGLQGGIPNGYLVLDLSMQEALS

| EC50 [nM] | Binder |
| --- | --- |
| 2.44 | YP218-IgG4 (antibody, from another filing, V domains shown) VH: QQQLEESGGGLVKPEGSLTLTCKASGFDLGFYFYACWVRQAPGKGLEWIACIYTAGSGSTYYASWAKGRFTISKASSTTVTLQMTSLAAADTATYFCARSTANTRSTYYLNLWGPGTLVTVSS VL: DVVMTQTPASVSEPVGGTVTIKCQASQRISSYLSWYQQKPGQRPKLLIFGASTLASGVPSRFKGSGSGTEYTLTISDLECADAATYYCQSYAYFDSNNWHAFGGGTEVVVRT |

The binders below were run against MSLN·His protein (human) (UniProt Q13421) (assay: SPR (Biacore), antibody captured on protein A, MSLN·His as analyte).
Sequence of MSLN·His protein (human) (Q13421 other isoform, or with tags, fused parts or gaps limits assumed): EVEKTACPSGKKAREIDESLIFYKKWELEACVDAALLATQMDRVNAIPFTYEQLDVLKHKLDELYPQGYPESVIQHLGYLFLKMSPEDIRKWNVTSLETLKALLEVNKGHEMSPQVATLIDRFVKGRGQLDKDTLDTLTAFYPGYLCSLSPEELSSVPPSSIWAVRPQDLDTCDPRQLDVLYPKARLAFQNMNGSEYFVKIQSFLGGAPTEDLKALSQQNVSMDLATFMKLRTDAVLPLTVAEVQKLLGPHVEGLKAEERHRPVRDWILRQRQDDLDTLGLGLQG

| Kd [nM] | koff [s⁻¹] | kon [M⁻¹ s⁻¹] | Binder |
| --- | --- | --- | --- |
| 3.1 | 0.000123 | 40200 | YP218-IgG4 (antibody, from another filing, V domains shown) VH: QQQLEESGGGLVKPEGSLTLTCKASGFDLGFYFYACWVRQAPGKGLEWIACIYTAGSGSTYYASWAKGRFTISKASSTTVTLQMTSLAAADTATYFCARSTANTRSTYYLNLWGPGTLVTVSS VL: DVVMTQTPASVSEPVGGTVTIKCQASQRISSYLSWYQQKPGQRPKLLIFGASTLASGVPSRFKGSGSGTEYTLTISDLECADAATYYCQSYAYFDSNNWHAFGGGTEVVVRT |
| 2270 | 0.000739 | 326 | M2339-z1-1 (antibody, part only; not given: constant region, IgG4, part only) heavy, part: QLQLGASGGGLVQPGGSLRLSCALSGFTLRELDEFAIGWFRQAPGKEREGVSCISGTGGITHYADSVKGRFTISRDIAKNTVYLQMNSLNSEDTAVYYCAADERCTDRLIRPPTYWGQGTQVTVSS |
